{
  "source": "paper PMC11099176",
  "binders": {"B1": {"name": "gp17 of bacteriophage SPP1, purified (natural protein)", "chain": "MTWKLASRALQKATVENLESYQPLMEMVNQVTESPGKDDPYPYVVIGDQSSTPFETKSSFGENITMDFHVWGGTTRAEAQDISSRVLEALTYKPLMFEGFTFVAKKLVLAQVITDTDGVTKHGIIKVRFTINNN"}},
  "key": {"[1]": {"target": "SPP1 tails lacking gp16.1 and gp17 (bacteriophage SPP1) (UniProt O48449)"}, "[2]": {"target": "SPP1 tails carrying gp16.1 and lacking gp17 (bacteriophage SPP1) (UniProt O48449)"}},
  "data": [
    {"binder": "B1", "values": [
      {"measurement": "infectious particles formed in vitro in SPP1gp16.1−-gp17− extract with 20 µM purified gp16.1 added, against purified gp17; gp17 concentration at the plateau", "setting": "[1]", "result": 0.2, "unit": "µM"},
      {"measurement": "infectious particles formed in vitro in SPP1gp17− extract (tails with endogenous gp16.1) against 0.003–20 µM purified gp17; gp17 concentration at the plateau", "setting": "[2]", "result": 6, "unit": "µM"}
    ]}
  ]
}
